B1: Δ20PnfucA (Prevotella nigrescens CC14M) (protein)
chain: QTNSQQQESNNRATTTESVPQKYIPTAENLAARKRFEGFRFGIFLHWGIYSTFAQGEWYLNNKINKDEYAKAASAFYPSYFDADAWISAIKASGAKYITFTSRHHDSFSMFKTKESNYNIVDATPFKRDVLKELANACHKQNIDLHIYYSILDWIREDYPIGRTGLYTGRKLKPNYGTYFNFMKGQVSELLHNYGKVGAIWLDGYWDHDSDSIPFDWRMEEFYRYIHSIQPACLIGNNHHIAPIDGEDFQMFERDLPGENKAGLSGQAISRLPLEACQTMNGMWGYKVSDINYKSTSQLIELLVRSAAKGSNLLLNIGPQPNGELPALALDRLQGIGKWMQQYGETIYETMAGDVAEADWGVSTSKGKKTYLHVLEQDAKTISCALSVKPKRVIDFASRQPLSFHYDKKTKTLTTHIGSHRNVVDYIIEIEK
notes: 20 N-terminal residues (signal peptide) removed; apparent mass ~52 kDa; codon-optimized synthetic gene

Key:
Assay in all cases: p-nitrophenol release, initial-rate kinetics
MBP-AlfC = biological target: T1, MBP-AlfC (Lacticaseibacillus paracasei, UniProt A0A422MHI3); assay type: biochemical; details: assay details in supplement; MBP fusion
T1 construct: gene BN194_28780; pMAL-c4X, E. coli; codon-optimized synthetic gene
T1 sequence (A0A422MHI3 1-344): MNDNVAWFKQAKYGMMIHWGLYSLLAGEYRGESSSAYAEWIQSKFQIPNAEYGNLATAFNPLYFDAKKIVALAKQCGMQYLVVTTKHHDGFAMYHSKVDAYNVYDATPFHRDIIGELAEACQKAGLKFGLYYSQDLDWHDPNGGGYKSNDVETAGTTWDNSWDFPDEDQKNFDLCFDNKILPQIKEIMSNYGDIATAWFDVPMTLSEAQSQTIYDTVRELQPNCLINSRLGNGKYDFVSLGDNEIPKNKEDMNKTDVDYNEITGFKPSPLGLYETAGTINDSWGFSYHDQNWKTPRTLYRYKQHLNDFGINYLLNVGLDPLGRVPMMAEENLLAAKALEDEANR
Description: p-nitrophenol release, initial-rate kinetics on MBP-AlfC

MBP-PnfucA = biological target: T2, MBP-PnfucA (Prevotella nigrescens, UniProt V8CPU0); assay type: biochemical; details: assay details in supplement; MBP fusion
T2 construct: gene HMPREF1173_00896; pMAL-c4X, E. coli; poor purity
Description: p-nitrophenol release, initial-rate kinetics on MBP-PnfucA

[1] = substrate: C[C@@H]1O[C@@H](Oc2ccc([N+](=O)[O-])cc2)[C@@H](O)[C@H](O)[C@@H]1O; assay type: biochemical, Prevotella nigrescens; details: assay details in supplement
Description: p-nitrophenol release, initial-rate kinetics on Δ20PnfucA

Molecule	Km (MBP-AlfC)	Km (MBP-PnfucA)	Km [1]	kcat [1]	kcat/Km [1]
C[C@@H]1O[C@@H](Oc2ccc([N+](=O)[O-])cc2)[C@@H](O)[C@H](O)[C@@H]1O [pNP-Fuc]	620 ± 60 µM	250 ± 20 µM	–	–	–
B1	–	–	560 ± 50 µM	66.5 ± 2 s⁻¹	119000 M⁻¹ s⁻¹
